Laboratory results: patent US20160002317A1

Biological target: mAG (monomeric Azami-Green) with C-terminal E. coli BirA biotinylation motif and 6xHis tag
Experiment: capture of lambda phage on MACS streptavidin beads prebound with biotinylated mAG1; background control

Substance: phage uninduced (control) for α-mAG1 Fab::calmodulin expression
- column output (phage (of 5.5×107 added)): 20000
